From patent US20210388087A1 (Chugai, published 2021)
Substitutions are numbered along the chain they refer to. In names and notes the source's numbering stands.

B1: dBBDu183H H96K/dBBDu072L (antibody, name in Kabat numbering, V domains shown)
VH: QVQLVESGGGLVQPGRSLRLSCAASGFTFSNAWMHWVRQAPGKGLEWVAQIKDKGNAYAAYYAPSVKGRFTISRDDSKNSIYLQMNSLKTEDTAVYYCHYVKYASASTVLPAFGVDAWGQGTTVTVSS
VL: DIVMTQSPLSLPVTPGEPASISCQASQELVHMNRNTYLHWYQQKPGQAPRLLIYKVSNRFPGVPDRFSGSGSGTDFTLKISRVEAEDVGVYYCAQGTSVPFTFGQGTKLEIK
B2: dBBDu183H H96R/dBBDu072L (antibody, name in Kabat numbering, V domains shown)
VH: B1 VH with K102R
VL: B1 VL
B3: dBBDu183H L100dS/dBBDu072L (antibody, name in Kabat numbering, V domains shown)
VH: B1 VH with K102H, L110S
VL: B1 VL
B4: dBBDu183H K64E/dBBDu072L (antibody, name in Kabat numbering, V domains shown)
VH: B1 VH with K67E, K102H
VL: B1 VL
B5: dBBDu183H K64T/dBBDu072L (antibody, name in Kabat numbering, V domains shown)
VH: B1 VH with K67T, K102H
VL: B1 VL
B6: dBBDu183H L100dR/dBBDu072L (antibody, name in Kabat numbering, V domains shown)
VH: B1 VH with K102H, L110R
VL: B1 VL
B7: dBBDu183H K64S/dBBDu072L (antibody, name in Kabat numbering, V domains shown)
VH: B1 VH with K67S, K102H
VL: B1 VL
B8: dBBDu183H P61K/dBBDu072L (antibody, name in Kabat numbering, V domains shown)
VH: B1 VH with P64K, K102H
VL: B1 VL
B9: dBBDu183H P61G/dBBDu072L (antibody, name in Kabat numbering, V domains shown)
VH: B1 VH with P64G, K102H
VL: B1 VL
B10: dBBDu183H K64R/dBBDu072L (antibody, name in Kabat numbering, V domains shown)
VH: B1 VH with K67R, K102H
VL: B1 VL
B11: dBBDu183H L100dN/dBBDu072L (antibody, name in Kabat numbering, V domains shown)
VH: B1 VH with K102H, L110N
VL: B1 VL
B12: dBBDu183H K64G/dBBDu072L (antibody, name in Kabat numbering, V domains shown)
VH: B1 VH with K67G, K102H
VL: B1 VL
B13: dBBDu183H L100dG/dBBDu072L (antibody, name in Kabat numbering, V domains shown)
VH: B1 VH with K102H, L110G
VL: B1 VL
B14: dBBDu183H L100dK/dBBDu072L (antibody, name in Kabat numbering, V domains shown)
VH: B1 VH with K102H, L110K
VL: B1 VL
B15: dBBDu183H L100dD/dBBDu072L (antibody, name in Kabat numbering, V domains shown)
VH: B1 VH with K102H, L110D
VL: B1 VL
B16: dBBDu183H L100dT/dBBDu072L (antibody, name in Kabat numbering, V domains shown)
VH: B1 VH with K102H, L110T
VL: B1 VL
B17: dBBDu183H H96Q/dBBDu072L (antibody, name in Kabat numbering, V domains shown)
VH: B1 VH with K102Q
VL: B1 VL
B18: dBBDu183H L100dE/dBBDu072L (antibody, name in Kabat numbering, V domains shown)
VH: B1 VH with K102H, L110E
VL: B1 VL
B19: dBBDu183H L100dH/dBBDu072L (antibody, name in Kabat numbering, V domains shown)
VH: B1 VH with K102H, L110H
VL: B1 VL
B20: dBBDu183H K64W/dBBDu072L (antibody, name in Kabat numbering, V domains shown)
VH: B1 VH with K67W, K102H
VL: B1 VL
B21: dBBDu183H P61E/dBBDu072L (antibody, name in Kabat numbering, V domains shown)
VH: B1 VH with P64E, K102H
VL: B1 VL
B22: dBBDu183H L100dV/dBBDu072L (antibody, name in Kabat numbering, V domains shown)
VH: B1 VH with K102H, L110V
VL: B1 VL
B23: dBBDu183H H96V/dBBDu072L (antibody, name in Kabat numbering, V domains shown)
VH: B1 VH with K102V
VL: B1 VL
B24: dBBDu183H H96W/dBBDu072L (antibody, name in Kabat numbering, V domains shown)
VH: B1 VH with K102W
VL: B1 VL
B25: dBBDu183H H96Y/dBBDu072L (antibody, name in Kabat numbering, V domains shown)
VH: B1 VH with K102Y
VL: B1 VL
B26: dBBDu183H H96N/dBBDu072L (antibody, name in Kabat numbering, V domains shown)
VH: B1 VH with K102N
VL: B1 VL
B27: dBBDu183H H96S/dBBDu072L (antibody, name in Kabat numbering, V domains shown)
VH: B1 VH with K102S
VL: B1 VL
B28: dBBDu183H K64H/dBBDu072L (antibody, name in Kabat numbering, V domains shown)
VH: B1 VH with K67H, K102H
VL: B1 VL
B29: dBBDu183H L100dQ/dBBDu072L (antibody, name in Kabat numbering, V domains shown)
VH: B1 VH with K102H, L110Q
VL: B1 VL
B30: dBBDu183H P61F/dBBDu072L (antibody, name in Kabat numbering, V domains shown)
VH: B1 VH with P64F, K102H
VL: B1 VL
B31: dBBDu183H L100dW/dBBDu072L (antibody, name in Kabat numbering, V domains shown)
VH: B1 VH with K102H, L110W
VL: B1 VL
B32: dBBDu183H L100dF/dBBDu072L (antibody, name in Kabat numbering, V domains shown)
VH: B1 VH with K102H, L110F
VL: B1 VL
B33: dBBDu183H K64F/dBBDu072L (antibody, name in Kabat numbering, V domains shown)
VH: B1 VH with K67F, K102H
VL: B1 VL
B34: dBBDu183H K64Q/dBBDu072L (antibody, name in Kabat numbering, V domains shown)
VH: B1 VH with K67Q, K102H
VL: B1 VL
B35: dBBDu183H K64V/dBBDu072L (antibody, name in Kabat numbering, V domains shown)
VH: B1 VH with K67V, K102H
VL: B1 VL
B36: dBBDu183H L100dY/dBBDu072L (antibody, name in Kabat numbering, V domains shown)
VH: B1 VH with K102H, L110Y
VL: B1 VL
B37: dBBDu183H P61H/dBBDu072L (antibody, name in Kabat numbering, V domains shown)
VH: B1 VH with P64H, K102H
VL: B1 VL
B38: dBBDu183H P61D/dBBDu072L (antibody, name in Kabat numbering, V domains shown)
VH: B1 VH with P64D, K102H
VL: B1 VL
B39: dBBDu183H H96T/dBBDu072L (antibody, name in Kabat numbering, V domains shown)
VH: B1 VH with K102T
VL: B1 VL
B40: dBBDu183H K64D/dBBDu072L (antibody, name in Kabat numbering, V domains shown)
VH: B1 VH with K67D, K102H
VL: B1 VL
B41: dBBDu183H K64N/dBBDu072L (antibody, name in Kabat numbering, V domains shown)
VH: B1 VH with K67N, K102H
VL: B1 VL
B42: dBBDu183H K64Y/dBBDu072L (antibody, name in Kabat numbering, V domains shown)
VH: B1 VH with K67Y, K102H
VL: B1 VL

Biological target: T1, Human CD3eg linker (human)
T1 construct: single-chain construct; also called recombinant human CD3
T1 chain: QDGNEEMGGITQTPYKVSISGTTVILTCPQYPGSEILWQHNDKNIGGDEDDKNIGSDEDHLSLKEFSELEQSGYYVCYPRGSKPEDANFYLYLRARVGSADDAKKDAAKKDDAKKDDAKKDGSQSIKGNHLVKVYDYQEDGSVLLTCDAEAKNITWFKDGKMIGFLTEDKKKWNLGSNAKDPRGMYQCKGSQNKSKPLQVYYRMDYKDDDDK
Experiment: SPR, vs unmutated H183/L072

Row | Binder | fold change of affinity
1 | B1 | 0.6 fold
2 | B2 | 0.3 fold
3 | B3 | 1.2 fold
4 | B4 | 1 fold
5 | B5 | 1.1 fold
6 | B6 | 1.8 fold
7 | B7 | 1 fold
8 | B8 | 1.7 fold
9 | B9 | 1.5 fold
10 | B10 | 0.9 fold
11 | B11 | 1.2 fold
12 | B12 | 1 fold
13 | B13 | 2 fold
14 | B14 | 1.8 fold
15 | B15 | 1 fold
16 | B16 | 1.3 fold
17 | B17 | 0.3 fold
18 | B18 | 0.7 fold
19 | B19 | 1.3 fold
20 | B20 | 1 fold
21 | B21 | 1.8 fold

Row | Binder | fold change of affinity
22 | B22 | 1 fold
23 | B23 | 0 fold
24 | B24 | 0 fold
25 | B25 | 0 fold
26 | B26 | 0 fold
27 | B27 | 0.2 fold
28 | B28 | 1 fold
29 | B29 | 1.1 fold
30 | B30 | 1.8 fold
31 | B31 | 1.7 fold
32 | B32 | 1.3 fold
33 | B33 | 1.3 fold
34 | B34 | 1 fold
35 | B35 | 1.1 fold
36 | B36 | 1.4 fold
37 | B37 | 1.8 fold
38 | B38 | 1.9 fold
39 | B39 | 0 fold
40 | B40 | 1 fold
41 | B41 | 1 fold
42 | B42 | 1 fold
